US8840891 (RSR, dated 2014)

Assays:
[1] = target: human TSHR, wild type, expressed on CHO cells (human) (UniProt P16473); assay: cell-based or functional assay
[2] = target: human TSHR, wild type, expressed on CHO cells (human) (UniProt P16473); assay: cell-based or functional assay; remark: listed apart in the source
[3] = target: human TSHR (wild type) expressed in CHO cells (human) (UniProt P16473); assay: cell-based or functional assay
TSHR coated onto tubes [4] = target: T1, TSHR coated onto tubes (human, UniProt P16473 21-764, limits assumed); assay: TSHR coated tubes, competitor 125I-TSH
T1 construct: whole entry named; also called TSHR coated tubes; thyrotropin receptor

TSHR coated onto tubes [5] = target: T1, TSHR coated onto tubes; assay: TSHR coated tubes, competitor 125I-5C9 IgG
TSHR coated onto tubes [6] = target: T1, TSHR coated onto tubes; assay: TSHR coated tubes, competitor 125I-M22 IgG
[7] = target: human TSHR (wild type) expressed in CHO cells (human) (UniProt P16473); assay: cell-based or functional assay; remark: listed apart in the source

Molecule	% inhib of 125I-TSH binding at 0.01 µg/mL (TSHR coated onto tubes [4]) [%]	% inhib of 125I-TSH binding at 0.1 µg/mL (TSHR coated onto tubes [4]) [%]	% inhib of 125I-TSH binding at 1 µg/mL (TSHR coated onto tubes [4]) [%]	% inhib of 125I-TSH binding at 10 µg/mL (TSHR coated onto tubes [4]) [%]	% inhib of 125I-TSH binding at 100 µg/mL (TSHR coated onto tubes [4]) [%]	% inhib of 125I-5C9 IgG binding at 0.01 µg/mL (TSHR coated onto tubes [5]) [%]	% inhib of 125I-5C9 IgG binding at 0.1 µg/mL (TSHR coated onto tubes [5]) [%]	% inhib of 125I-5C9 IgG binding at 1 µg/mL (TSHR coated onto tubes [5]) [%]	% inhib of 125I-5C9 IgG binding at 10 µg/mL (TSHR coated onto tubes [5]) [%]	% inhib of 125I-5C9 IgG binding at 100 µg/mL (TSHR coated onto tubes [5]) [%]	% inhib of 125I-M22 IgG binding at 0.01 µg/mL (TSHR coated onto tubes [6]) [%]	% inhib of 125I-M22 IgG binding at 0.1 µg/mL (TSHR coated onto tubes [6]) [%]	% inhib of 125I-M22 IgG binding at 1 µg/mL (TSHR coated onto tubes [6]) [%]	% inhib of 125I-M22 IgG binding at 10 µg/mL (TSHR coated onto tubes [6]) [%]	% inhib of 125I-M22 IgG binding at 100 µg/mL (TSHR coated onto tubes [6]) [%]	further results
recombinant human TSH (NIBSC reference preparation 94/674) (from UniProt P01215 25-116; P01222 21-138) (ligand)	–	–	–	–	–	–	–	–	–	–	–	–	–	–	–	cyclic AMP; Exp 1; recombinant human TSH 100 ng/mL only [1]: 12.7 pmol/mL; cyclic AMP; Exp 2; recombinant human TSH 100 ng/mL only [1]: 16.7 pmol/mL; cyclic AMP; Exp 3; recombinant human TSH 100 ng/mL only [1]: 26.4 pmol/mL
M22 Fab	–	–	–	–	–	–	–	–	–	–	–	–	–	–	–	cyclic AMP; Exp 1; M22 3 ng/mL [2]: 49.1 pmol/mL; cyclic AMP; Exp 2; M22 3 ng/mL [2]: 68.3 pmol/mL; cyclic AMP; Exp 3; M22 0.3 ng/mL [2]: 21.8 pmol/mL; cyclic AMP; Exp 4; M22 0.3 ng/mL [2]: 31.1 pmol/mL; cyclic AMP production; M22 Fab 3 ng/mL only (fmol/cell well) [3]: 9430
5C9 F(ab′)2	–	–	–	–	–	–	–	–	–	–	–	–	–	–	–	cyclic AMP; Example 1; 5C9 F(ab′)2 10 µg/mL + TSH (fmol/cell well) [3]: 916; cyclic AMP; Example 1; 5C9 F(ab′)2 100 µg/mL + TSH (fmol/cell well) [3]: 877; cyclic AMP; Example 1; 5C9 F(ab′)2 100 µg/mL only (fmol/cell well) [3]: 204; cyclic AMP; Example 2; 5C9 F(ab′)2 10 µg/mL + TSH (fmol/cell well) [3]: 1330; cyclic AMP; Example 2; 5C9 F(ab′)2 100 µg/mL + TSH (fmol/cell well) [3]: 1060; cyclic AMP; Example 2; 5C9 F(ab′)2 100 µg/mL only (fmol/cell well) [3]: 414
native human TSH (NIBSC reference preparation 81/565) (from UniProt P01215 25-116; P01222 21-132) (ligand)	–	–	–	–	–	–	–	–	–	–	–	–	–	–	–	cyclic AMP; Exp 1; native human TSH 100 ng/mL only [1]: 36.1 pmol/mL; cyclic AMP; Exp 2; native human TSH 100 ng/mL only [1]: 40.8 pmol/mL; cyclic AMP; Exp 3; native human TSH 100 ng/mL only [1]: 31.1 pmol/mL
2B4 IgG (antibody, V domains shown) VH: DVQLQQSGTVLARPGASVRMSCKASGYSFTRYWIHWLKQRPGQGLEWIGAIFPGNRDTSYNQRFKGKAEVTAVTSASTAYLDLSSLTNEDSAVYYCTRWPYYGSIYVNFDYWGQGTTLTVSS VL: DIVMTQSPLSLPVSLGDQASISCRTSQNLVHRNGNTYLHWYLQKPGQSPKLLIYKISNRFSGVPDRFSGSGSGTDFTLKISRVEAEDLGVYFCSQGTHVPPTFGGGTKLEIKR	13.5	56	82	85	88.5	8	23	42	48	72	1	12	9	19	30	–
5C9 Fab (Fab, from another filing, V domains shown) VH: EVQLVESGGGLIQPGGSLRLSCAASGFTVSSNYMSWVRQAPGKGLEWVSVTYSGGSTSYADSVKGRFTISRDNSKNTLYLQMNSLRAEDTAVYYCARGGRYCSSISCYARSGCDYWGQGTLVTVSS VL: AIQMTQSPSSLSASVGDRVTITCRASQSISNYLNWYQQKPGKAPKLLIYAASSLQSGVPSRFSGSGSGTDFTLTISSLQPEDFATYYCQQSYSSPSTTFGQGTKLEIK	–	–	–	–	–	–	–	–	–	–	–	–	–	–	–	cyclic AMP; Example 1; 5C9 Fab 10 µg/mL + TSH (fmol/cell well) [7]: 1280; cyclic AMP; Example 1; 5C9 Fab 100 µg/mL + TSH (fmol/cell well) [7]: 938; cyclic AMP; Example 1; 5C9 Fab 100 µg/mL only (fmol/cell well) [7]: 235; cyclic AMP; Example 2; 5C9 Fab 10 µg/mL + TSH (fmol/cell well) [7]: 4130; cyclic AMP; Example 2; 5C9 Fab 100 µg/mL + TSH (fmol/cell well) [7]: 867; cyclic AMP; Example 2; 5C9 Fab 100 µg/mL only (fmol/cell well) [7]: 212; % inhibition of basal cyclic AMP production; Exp 3; 5C9 F(ab′) 0.001 µg/mL [1]: 3%; % inhibition of basal cyclic AMP production; Exp 3; 5C9 F(ab′) 0.1 µg/mL [1]: 19%; % inhibition of basal cyclic AMP production; Exp 3; 5C9 F(ab′) 1 µg/mL [1]: 23%; % inhibition of basal cyclic AMP production; Exp 3; 5C9 F(ab′) 10 µg/mL [1]: 39%; % inhibition of basal cyclic AMP production; Exp 3; 5C9 F(ab′) 100 µg/mL [1]: 48%; % inhibition of basal cyclic AMP production; Exp 3; 5C9 Fab 0.1 µg/mL [1]: 11%; % inhibition of basal cyclic AMP production; Exp 3; 5C9 Fab 1 µg/mL [1]: 39%; % inhibition of basal cyclic AMP production; Exp 3; 5C9 Fab 10 µg/mL [1]: 46%; % inhibition of basal cyclic AMP production; Exp 3; 5C9 Fab 100 µg/mL [1]: 61%
14D3 IgG (antibody, V domains shown) VH: DVQMQQPGPELVKPGASLKMSCKASGYSFTGYNMHWVKQSHGKSLEWIGYIDPYSGATSYNQKFEGKATLTVDKSSSTAYMQLNSLTSEDSAVYYCARRWDWDPYAMDYWGQGTSVTVSS VL: NILMTQSPAILSVSPGERVSFACRASQSIGTSIHWYQQRTNGSPRLLIKYASESISGIPSRFSGSGSGTDFTLSINSVESEDIADYYCQQTNRWPLTFGAGTKLELKR	4	12.5	37	52	57	1	10	35	50.5	63	3	15	37	60	62	–
17D2 IgG (antibody, V domains shown) VH: DVQIQQSGPELVKPGASVKMSCKASGYSFTAYNMHWVKQTHGKSLEWIGYIDPYSGATSYHQKFKGKATLTVDKSSSTAYMRLNSLTSEDSAVYYCARRWDWDPYAMDYWGQGTSVTVSS VL: SVEMSQSPAILSVSPGERISFSCRASQSIGTSIHWYQQRTNGSPRLLIKYASASISGIPSRFSGSGSGTDFTLSINSVESEDIADYYCQQSNSWPLTFGAGTKLELKR	3	7	24	43	56	3	11	26	43	55	1	13	24	39	49	–
16E5 IgG (antibody, V domains shown) VH: DVQLVQSGPELVKPGASVKMSCKASGYSFTGYNMHWVKQSHGKSLEWIGYIDPYNGATSYNQKFEDKATLTVDKSSSTAYMQLNSLTSEDSAVYYCARRWDWDPYAMDYWGQGTSVTVSS VL: DILLTQSPAILSVSPGERVSFSCRASQSIGTSIHWYQQRTNGSPRLLIKYASESISGIFSRFSGSGSGTDFTLTINSVESEDIADYYCQQSNRWPLTFGAGTKLELKR	9	26	39	44	48	20	34	47	53	59	12	22	40	51	53	–
